{"source": "patent US20100136573", "proteins": {"B1": {"name": "active human recombinant caspase-3 (CHEMICON) (protein)", "chain": "SGISLDNSYKMDYPEMGLCIIINNKNFHKSTGMTSRSGTDVDAANLRETFRNLKYEVRNKNDLTREEIVELMRDVSKEDHSKRSSFVCVLLSHGEEGIIFGTNGPVDLKKITNFFRGDRCRSLTGKPKLFIIQACRGTELDCGIETDSGVDDDMACHKIPVEADFLYAYSTAPGYYSWRNSKDGSWFIQSLCAMLKQYADKLEFMHILTRVNRKVATEFESFSFDATFHAKKQIPCIVSMLTKELYFYH"}}, "target": "Recombinant human GST-TDP-43 (N-terminal GST tag, full length), non-phosphorylated", "sequence (chain, as listed by the source)": "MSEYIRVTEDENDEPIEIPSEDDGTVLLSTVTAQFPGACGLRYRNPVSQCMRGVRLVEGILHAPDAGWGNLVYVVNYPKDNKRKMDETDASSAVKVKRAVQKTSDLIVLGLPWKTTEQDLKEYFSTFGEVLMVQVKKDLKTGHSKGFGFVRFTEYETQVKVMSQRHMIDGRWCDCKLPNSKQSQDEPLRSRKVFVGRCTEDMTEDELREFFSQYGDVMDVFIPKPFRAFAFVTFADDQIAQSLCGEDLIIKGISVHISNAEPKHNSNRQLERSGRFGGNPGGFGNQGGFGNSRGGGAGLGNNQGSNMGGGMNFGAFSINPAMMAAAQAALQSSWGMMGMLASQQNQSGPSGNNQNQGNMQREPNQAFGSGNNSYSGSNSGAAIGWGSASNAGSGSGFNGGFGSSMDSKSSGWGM"}
{"protein": "B1", "values": [{"measurement": "in vitro cleavage, SDS-PAGE stained with Coomassie", "value": "cleavage of full length TDP-43 by purified cleaved caspase-3, resulting in three distinct fragments of approximately 42, 35, and 25 kD"}]}
